From US20090094709

Test system: AMPK, active (upstate) protein

Q: PP2Cε protein (in vitro assay) was tested. Which “dephosphorylation of AMPK” value did it give?
A: The value was “the dephosphorylation of AMPK with PP2Cε occurs concentration-dependently”.
